Measurements: US20070265189A1 (published 2007)

B1: 20E2A-4-F11-IGFR (peptide)
peptide: QGGSASFYDAIDRLLRMRIGG
B2: 20C-3-F6-IGFR (peptide)
peptide: DRDFCRFYERLTALVGGQVDGGWPC
B3: A6S-2-D11-IR (peptide)
peptide: EAASLGSQDRNFYDWFVRQVV
B4: 20E2B-1-A6-IGFR (peptide)
peptide: GVRAMSFYDALVSVLGLGPSG
B5: 20C-3-G3-IGFR (peptide)
peptide: TFYSCLASLLTGTPQPNRGPWERCR
B6: B6Hα-3-E9-IR (peptide)
peptide: RCEEKQAEVGPSSDPFYHKMSELLGCR
B7: B6Hα-1-B5-IR (peptide)
peptide: CCTTEMVVMDARDDPFYHKLSELVTGG
B8: A6L-0-H3-IR (peptide)
peptide: YRGMLVLGRISGGAGKAASERPARIGQKVSAVNFYDWFV
B9: 20E2B-3-02-IGFR (peptide)
peptide: GNGDGMFYQLLSLLVGRDMHV
B10: 20C-3-A1-IGFR (peptide)
peptide: SSYGCDGFYLMLFSLGLVASQELEC
B11: H2CA-3-E11-IGFR (peptide)
peptide: HLADGQFHEKFYDWFERQISSRCNDC
B12: 20E2B-4-F8-IGFR (peptide)
peptide: PVGVQGFYEGLSRLVLGRGGW
B13: A6S-3-E2-IR (peptide)
peptide: TSEVQRRSQDNFYDWFVAQVA
B14: H2CA-4-H6-IGFR (peptide)
peptide: VGRASGFPENFYDWFGRQLSLQSGEQ
B15: H2CA-2-B11-IGFR (peptide)
peptide: AICDAGFHEHFYDWFALQVSDCGRQS
B16: 20E2B-4-H12-IGFR (peptide)
peptide: YSCGDGFYSLLSDLLGGQFRC
B17: 20E2B-3-C6-IGFR (peptide)
peptide: VEGRGLFYDLLRQLLARRQNG
B18: NNRPγ-4-B11-IR (peptide)
peptide: LKDGFYDYFWQRLHLGS
B19: H2CA-3-C11-IGFR (peptide)
peptide: FRTLAAQHDSFYDWFDRQVSGAAGER
B20: H2CA-4-F5-IGFR (peptide)
peptide: VGYQGQGDENFYDWFIRQVSGRLGVQ
B21: 20C-4-C7-IGFR (peptide)
peptide: FFYDCLAALLQGVARYHDLCAVEIT
B22: R20α-4-20A12-IR (peptide)
peptide: RLFYCGIQALGANLGYSGCV
B23: H2CA-2-B2-IGFR (peptide)
peptide: GAPVDQLHEDFYDWFVRQVSQAATG
B24: 20E2B-4-H3-IGFR (peptide)
peptide: KLHNLMFYYGLQRLVWGAGLG
B25: 20E2B-3-E3-IGFR (peptide)
peptide: PDLHKGFYAQLAQLIRGQLLS
B26: R20α-4-20C11-IR (peptide)
peptide: DRAFYNGLRDLVGAVYGAWD
B27: 20E2B-3-D8-IGFR (peptide)
peptide: GGTEVDFYRALERLVRGQLGL
B28: A6S-2-D1-IR (peptide)
peptide: VERSASSQDGNFYDWFVVQIR
B29: B6Hα-1-A2-IR (peptide)
peptide: RGCNDDGGKGWSDDPFYHKLSELICGG
B30: H2CA-4-H9-IGFR (peptide)
peptide: RGAVAGFHDQFYDWFDRQVSRVHKFG
B31: 20E2Bβ-4-G7-IR (peptide)
peptide: LQPCSGFYECIERLIGVKLSG
B32: R20α-3-20E2-IR (peptide)
peptide: FYDAIDQLVRGSARAGGTRD
B33: 20E2B-3-D2-IGFR (peptide)
peptide: IQQELTFYDLLHRLVRSELGS
B34: R20β-4-A6-IR (peptide)
peptide: RGQSDAFYSGLWALIGLSDG
B35: B6Hα-3-F11-IR (peptide)
peptide: RGMKEEVLVGGSTDPFYHKLSELLQGS
B36: E4Dα-2-D11-IR (peptide)
peptide: GFREGSFYDWFQAQVT
B37: 20E2Bβ-4-G6-IR (peptide)
peptide: SQAGSAFYAWFDQVLRTVHSA
B38: 20E2B-3-E8-IGFR (peptide)
peptide: LRIANLFYQRLWDLAFGGGG
B39: A6L-0-E6-IR (peptide)
peptide: YRGMLVLGRSSDGAGKVAFERPARIGQTVFAVNFYDWFV
B40: H2CA-3-E8-IGFR (peptide)
peptide: LGYQEPFQQNFYDWFVRQVSGAENAG

Legend:
[1] = target: T1, Soluble IGF-1R (sIGF-1R), R&D Systems Cat. # 391-GR/CF (UniProt P08069 31-935, limits assumed); assay: phage ELISA
T1 construct: extracellular domain

[2] = target: T2, soluble human insulin receptor-immunoglobulin heavy chain chimera (sIR-Fc; Bass et al., 1996) (human, UniProt P06213 28-956, limits assumed); assay: phage ELISA
T2 construct: extracellular domain; also called soluble IR (Bass construct); not shown: immunoglobulin heavy chain constant domains

Binder | IGF-1R/IR comparison [1] | Ratio over Background [1] | IR/IGF-1R comparison [2] | Ratio over Background [2]
B1 | 14.6 | 18.8 | 0.1 | 1.3
B2 | 14.1 | 26.1 | 0.1 | 1.9
B3 | 2.8 | 37.4 | 0.4 | 13.5
B4 | 16.8 | 18.1 | 0.1 | 1.1
B5 | 27 | 32.3 | < 0.1 | 1.2
B6 | 14.2 | 24.2 | 0.1 | 1.7
B7 | 20.5 | 20.5 | 0 | 1
B8 | 13 | 26 |  | 
B9 | 13.8 | 8.9 | 0.1 | 0.6
B10 | 13.7 | 20.8 | 0.1 | 1.5
B11 | 2.2 | 2.2 | 0.5 | 1
B12 | 9.7 | 7.3 | 0.1 | 0.8
B13 | 2.5 | 24.7 | 0.4 | 9.8
B14 | 14.6 | 10.5 | 0.1 | 0.7
B15 | 3 | 4.6 | 0.3 | 1.6
B16 | 12.8 | 9.7 | 0.1 | 0.8
B17 | 14.8 | 16.8 | 0.1 | 1.1
B18 | 15.5 | 18.7 | 0.1 | 1.2
B19 | 2.1 | 3.3 | 0.5 | 1.6
B20 | 12.3 | 9.7 | 0.1 | 0.8

Binder | IGF-1R/IR comparison [1] | Ratio over Background [1] | IR/IGF-1R comparison [2] | Ratio over Background [2]
B21 | 21.8 | 28 | < 0.1 | 1.3
B22 | 16.6 | 39.9 | 0.1 | 2.4
B23 | 3.5 | 3.4 | 0.3 | 1
B24 | 13.9 | 14.8 | 0.1 | 1.1
B25 | 13.1 | 16.3 | 0.1 | 1.3
B26 | 10.3 | 30.8 | 0.1 | 3
B27 | 11.3 | 17.7 | 0.1 | 1.6
B28 | 2.6 | 30.6 | 0.4 | 12
B29 | 14.6 | 14.6 | 0.1 | 1
B30 | 3 | 5.6 |  | 
B31 | 15.8 | 25.2 | 0.1 | 1.6
B32 | 12.9 | 39.9 | 0.1 | 3.1
B33 | 11.7 | 12.4 | 0.1 | 1.1
B34 | 17.3 | 25.9 | 0.1 | 1.5
B35 | 11.7 | 18.7 | 0.1 | 1.6
B36 | 3.4 | 11.1 | 0.3 | 3.3
B37 | 3.3 | 6.2 | 0.3 | 1.9
B38 | 11.1 | 16.7 | 0.1 | 1.5
B39 | 17 | 31 | 0.1 | 1.8
B40 | 2.9 | 6.3 | 0.3 | 2.2
